Measured values published in the supplement of paper PMC10724198.
± gives the standard deviation of the averaged measurements.

Tested on: Saccharomyces cerevisiae
Test: protein stability index of tFT-peptide fusion (C-terminal peptide) (PSI (0-1 scale)); higher = more stable (slower turnover)
Conditions: temperature: 30 C
Description: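 MPS profiling in S. cerevisiae of the yeast C-terminome library: the last 12 aa of each annotated ORF are fused to the C-terminus of a sfGFP-mCherry timer, after a GGGS linker. Cells are FACS-sorted into 8 mCherry/sfGFP bins and deep-sequenced. PSI runs from 0 (unstable) to 1 (stable); wild type and das1Δ backgrounds, two technical replicates each.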

[1] = genetic background: das1 deletion

KNLTRTSVSFIG [TRS85 C-terminal 12 aa]
protein stability index [1]: 0.7307 ± 0.0033
protein stability index (genetic background: wild type): 0.702 ± 0.037

KNSNLSPTQIEL [SSK1 C-terminal 12 aa]
protein stability index [1]: 0.7083 ± 0.0012
protein stability index (genetic background: wild type): 0.693 ± 0.024

KPFYYKIYRFWC [SAM3 C-terminal 12 aa]
protein stability index [1]: 0.735 ± 0.024
protein stability index (genetic background: wild type): 0.3886 ± 0.0019

KPGGSKKRKTKA [RFC1 C-terminal 12 aa]
protein stability index [1]: 0.729 ± 0.011
protein stability index (genetic background: wild type): 0.747 ± 0.15

KPGLTVYSIELL [SMP3 C-terminal 12 aa]
protein stability index [1]: 0.6898 ± 0.0048
protein stability index (genetic background: wild type): 0.692 ± 0.011

KPMAYSNGGFGL [PPT1 C-terminal 12 aa]
protein stability index [1]: 0.674 ± 0.015
protein stability index (genetic background: wild type): 0.668 ± 0.015

KQAQEGTKNLKI [PAC10 C-terminal 12 aa]
protein stability index [1]: 0.714 ± 0.055
protein stability index (genetic background: wild type): 0.666 ± 0.029

KQRFLLCWSTKL [YHR131W-A C-terminal 12 aa]
protein stability index [1]: 0.693 ± 0.034
protein stability index (genetic background: wild type): 0.55 ± 0.04

KQYSSPEICFRV [YBR134W C-terminal 12 aa]
protein stability index [1]: 0.692 ± 0.029
protein stability index (genetic background: wild type): 0.663 ± 0.014

KRAENNAQKKTN [ERG25 C-terminal 12 aa]
protein stability index [1]: 0.689 ± 0.019
protein stability index (genetic background: wild type): 0.495 ± 0.0083

KRRPYVRAHAKW [YGR051C C-terminal 12 aa]
protein stability index [1]: 0.7089 ± 0.0043
protein stability index (genetic background: wild type): 0.698 ± 0.05

KRRSDSKESRKL [YPR145C-A C-terminal 12 aa]
protein stability index [1]: 0.713 ± 0.037
protein stability index (genetic background: wild type): 0.673 ± 0.03

KSQISVSFYRDN [YPR027C C-terminal 12 aa]
protein stability index [1]: 0.704 ± 0.04
protein stability index (genetic background: wild type): 0.6736 ± 0.0023

KSVRIAIDKPIR [ALD5 C-terminal 12 aa]
protein stability index [1]: 0.696 ± 0.026
protein stability index (genetic background: wild type): 0.666 ± 0.018

KTGKKNKVAKKN [SRP14 C-terminal 12 aa]
protein stability index [1]: 0.682 ± 0.0078
protein stability index (genetic background: wild type): 0.692 ± 0.021

KTHRSRSSRKGN [YMR135W-A C-terminal 12 aa]
protein stability index [1]: 0.6834 ± 0.0026
protein stability index (genetic background: wild type): 0.704 ± 0.023

KTQDYGKKYNSG [SIZ1 C-terminal 12 aa]
protein stability index [1]: 0.69 ± 0.018
protein stability index (genetic background: wild type): 0.727 ± 0.0097

KTVSDEEYAYIV [APM2 C-terminal 12 aa]
protein stability index [1]: 0.6901 ± 0.0029
protein stability index (genetic background: wild type): 0.707 ± 0.011

KTVSPNWEVKEL [CYM1 C-terminal 12 aa]
protein stability index [1]: 0.6828 ± 0.0036
protein stability index (genetic background: wild type): 0.702 ± 0.019

KTYIKNDVEIFN [HBN1 C-terminal 12 aa]
protein stability index [1]: 0.715 ± 0.025
protein stability index (genetic background: wild type): 0.726 ± 0.067

KVNGDIYRLPPS [MBA1 C-terminal 12 aa]
protein stability index [1]: 0.6888 ± 0.001
protein stability index (genetic background: wild type): 0.677 ± 0.0092

KVRTQSKQPQEE [SAW1 C-terminal 12 aa]
protein stability index [1]: 0.682 ± 0.021
protein stability index (genetic background: wild type): 0.673 ± 0.026

KVSPADAAKKAL [RPS26A C-terminal 12 aa]
protein stability index [1]: 0.704 ± 0.0096
protein stability index (genetic background: wild type): 0.718 ± 0.02

KVTSANEHTSAV [PEX27 C-terminal 12 aa]
protein stability index [1]: 0.689 ± 0.011
protein stability index (genetic background: wild type): 0.697 ± 0.013

KWGLSKKDGRQA [SLY41 C-terminal 12 aa]
protein stability index [1]: 0.699 ± 0.034
protein stability index (genetic background: wild type): 0.7036 ± 0.0043

KWLWRELEESSL [OCA5 C-terminal 12 aa]
protein stability index [1]: 0.745 ± 0.018
protein stability index (genetic background: wild type): 0.7234 ± 0.0014

KYKFYDDENLTE [SOL1 C-terminal 12 aa]
protein stability index [1]: 0.72 ± 0.017
protein stability index (genetic background: wild type): 0.733 ± 0.081

KYRRQVRYTQRT [YGL052W C-terminal 12 aa]
protein stability index [1]: 0.708 ± 0.0075
protein stability index (genetic background: wild type): 0.698 ± 0.013

KYYETVGKADII [AIM36 C-terminal 12 aa]
protein stability index [1]: 0.68805 ± 0.00047
protein stability index (genetic background: wild type): 0.697 ± 0.025

LADAGHLWHSIT [YNL120C C-terminal 12 aa]
protein stability index [1]: 0.746 ± 0.02
protein stability index (genetic background: wild type): 0.6128 ± 0.00091

LADLRVYLRVPG [YGL088W C-terminal 12 aa]
protein stability index [1]: 0.565 ± 0.021
protein stability index (genetic background: wild type): 0.568 ± 0.013

LAFIAACKKYIY [IKS1 C-terminal 12 aa]
protein stability index [1]: 0.696 ± 0.023
protein stability index (genetic background: wild type): 0.487 ± 0.026

LAITIAALCASL [EXG2 C-terminal 12 aa]
protein stability index [1]: 0.55 ± 0.0069
protein stability index (genetic background: wild type): 0.572 ± 0.018

LAPLQFSGIVRS [YDR274C C-terminal 12 aa]
protein stability index [1]: 0.6773 ± 0.0022
protein stability index (genetic background: wild type): 0.682 ± 0.045

LAVEETIGFGQE [RSP5 C-terminal 12 aa]
protein stability index [1]: 0.7037 ± 0.0066
protein stability index (genetic background: wild type): 0.692 ± 0.011

LAWNPNLSAKRF [PRP46 C-terminal 12 aa]
protein stability index [1]: 0.71 ± 0.031
protein stability index (genetic background: wild type): 0.705 ± 0.021

LDDTPAPTATNL [NUD1 C-terminal 12 aa]
protein stability index [1]: 0.6857 ± 0.0035
protein stability index (genetic background: wild type): 0.701 ± 0.034

LDIFCLIFRKRT [YPR076W C-terminal 12 aa]
protein stability index [1]: 0.508 ± 0.031
protein stability index (genetic background: wild type): 0.5061 ± 0.00095

LDSVFSKFCIGK [MSS1 C-terminal 12 aa]
protein stability index [1]: 0.7 ± 0.0095
protein stability index (genetic background: wild type): 0.703 ± 0.082

LEEETLPPSQKK [PYC2 C-terminal 12 aa]
protein stability index [1]: 0.694 ± 0.013
protein stability index (genetic background: wild type): 0.647 ± 0.02

LEFVRGGSRQFT [TIM44 C-terminal 12 aa]
protein stability index [1]: 0.689 ± 0.0081
protein stability index (genetic background: wild type): 0.713 ± 0.02

LEKHTASDTSCI [YAL066W C-terminal 12 aa]
protein stability index [1]: 0.727 ± 0.025
protein stability index (genetic background: wild type): 0.692 ± 0.072

LENIKKAKEFFQ [GTR1 C-terminal 12 aa]
protein stability index [1]: 0.726 ± 0.012
protein stability index (genetic background: wild type): 0.705 ± 0.027

LERLRYLFPNYW [MEU1 C-terminal 12 aa]
protein stability index [1]: 0.738 ± 0.016
protein stability index (genetic background: wild type): 0.717 ± 0.051

LFFQDIERFFSC [YMR194C-A C-terminal 12 aa]
protein stability index [1]: 0.7717 ± 0.0042
protein stability index (genetic background: wild type): 0.7619 ± 0.0028

LHVISKVAGKLF [SBH1 C-terminal 12 aa]
protein stability index [1]: 0.703 ± 0.022
protein stability index (genetic background: wild type): 0.656 ± 0.014

LIDLCCSCAGGM [MNC1 C-terminal 12 aa]
protein stability index [1]: 0.685 ± 0.012
protein stability index (genetic background: wild type): 0.643 ± 0.0049

LIPELYSVLDGF [YDL007C-A C-terminal 12 aa]
protein stability index [1]: 0.7449 ± 0.0037
protein stability index (genetic background: wild type): 0.74 ± 0.051

LISEFQKKQAKK [MEF1 C-terminal 12 aa]
protein stability index [1]: 0.7194 ± 0.0033
protein stability index (genetic background: wild type): 0.691 ± 0.038

LKDNLAKPKTRR [VBA2 C-terminal 12 aa]
protein stability index [1]: 0.715 ± 0.0088
protein stability index (genetic background: wild type): 0.708 ± 0.031

LKILRQKMNHQN [ATG1 C-terminal 12 aa]
protein stability index [1]: 0.686 ± 0.013
protein stability index (genetic background: wild type): 0.207 ± 0.042

LKNGDKPHLLKF [RPL6B C-terminal 12 aa]
protein stability index [1]: 0.714 ± 0.038
protein stability index (genetic background: wild type): 0.686 ± 0.015

LKRVVTKAMSSR [SSB1 C-terminal 12 aa]
protein stability index [1]: 0.714 ± 0.012
protein stability index (genetic background: wild type): 0.6864 ± 0.0039

LKSGEKESNASK [SDC1 C-terminal 12 aa]
protein stability index [1]: 0.678 ± 0.0026
protein stability index (genetic background: wild type): 0.652 ± 0.013

LLCFRPTRGCGP [YCL041C C-terminal 12 aa]
protein stability index [1]: 0.7091 ± 0.0046
protein stability index (genetic background: wild type): 0.687 ± 0.013

LLDAIELYQRHK [HEM4 C-terminal 12 aa]
protein stability index [1]: 0.698 ± 0.017
protein stability index (genetic background: wild type): 0.6704 ± 0.0026

LLEDLRSRIDLD [MLO50 C-terminal 12 aa]
protein stability index [1]: 0.685 ± 0.048
protein stability index (genetic background: wild type): 0.744 ± 0.087

LLHTVMNENKLP [LST7 C-terminal 12 aa]
protein stability index [1]: 0.716 ± 0.03
protein stability index (genetic background: wild type): 0.687 ± 0.054

LLILLVLFSKFK [VTI1 C-terminal 12 aa]
protein stability index [1]: 0.295 ± 0.02
protein stability index (genetic background: wild type): 0.302 ± 0.0073

LMESEREARRLR [RPS28A C-terminal 12 aa]
protein stability index [1]: 0.708 ± 0.01
protein stability index (genetic background: wild type): 0.6762 ± 0.0022

LMKLFKSSKFSK [GEM1 C-terminal 12 aa]
protein stability index [1]: 0.724 ± 0.024
protein stability index (genetic background: wild type): 0.694 ± 0.077
